Results published in patent publication US20230357370A1.

What follows are substances tested against RSV F peptide 51-66 (respiratory syncytial virus, A2 strain).

Substance	CD4+ CD8- splenic T cells: % cytokine-positive, TNFa+ (intracellular cytokine immunofluorescence) [%]
splenic T cells of BALB/c mice vaccinated with A317 RNA delivered using electroporation (cells without a defined receptor)	0.05
splenic T cells of BALB/c mice vaccinated with A317 RNA formulated with CNE17 (cells without a defined receptor)	0.05
splenic T cells of BALB/c mice vaccinated with A317 RNA in liposomes RV01(01) (cells without a defined receptor)	0.09
splenic T cells of BALB/c mice vaccinated with VRPs expressing RSV-F (cells without a defined receptor)	0.1
splenic T cells of BALB/c mice vaccinated with naked self-replicating RNA A317 (cells without a defined receptor)	0.03
splenic T cells of unvaccinated BALB/c mice (cells without a defined receptor)	0

These substances were tested against RSV F peptides F85-93 and F249-258 (respiratory syncytial virus, A2 strain).

Substance	CD8+ CD4- splenic T cells: % cytokine-positive, IFNg+ (intracellular cytokine immunofluorescence) [%]
splenic T cells of BALB/c mice vaccinated with A317 RNA delivered using electroporation (cells without a defined receptor)	0.85
splenic T cells of BALB/c mice vaccinated with A317 RNA formulated with CNE17 (cells without a defined receptor)	1.25
splenic T cells of BALB/c mice vaccinated with A317 RNA in liposomes RV01(01) (cells without a defined receptor)	3.69
splenic T cells of BALB/c mice vaccinated with VRPs expressing RSV-F (cells without a defined receptor)	3.48
splenic T cells of BALB/c mice vaccinated with naked self-replicating RNA A317 (cells without a defined receptor)	0.74
splenic T cells of unvaccinated BALB/c mice (cells without a defined receptor)	0.01
